Test results reported in patent publication US20220406376A1 (MacroGenics, published 2022).
Changes are numbered by the printed parent chain.

Target: T1, extracellular portion of human CD137 fused to a histidine-containing peptide (human, UniProt Q07011 24-186)
T1 construct: extracellular domain; also called huCD137; His-tagged soluble human CD137
Assay: Attana Cell A200 QCM; antibody captured by anti-human IgG Fc; soluble human CD137-His; grade relative to (1B.3)

B1: hCD137 MAB-3 (1B.4) (antibody, V domains shown)
VH: QVQLVQSGAEVKKPGASVKVSCKASGYTFTSYWINWVKQAPGQGLEWIGNIYPSDSYTNYNQKFKDKATITADKSTSTAYMELSSLRSEDTAVYYCTRDYGSAYSMSTWGQGTTVTVSS
VL: DIQMTQSPSSLSASVGDRVTITCQASQDISNYLNWYQQKPDKTVKLLIYYTSRLRSGVPSRFSGSGSGTDFTFTISSLQPEDIATYFCQQGDTLPYTFGQGTKLEIK
binding result: binds

B2: hCD137 MAB-3 (1B.6) (antibody, V domains shown)
VH: B1 VH
VL: B1 VL with Q24R, A25P, L54A
binding result: binds

B3: hCD137 MAB-3 (1E.3) (antibody, V domains shown)
VH: B1 VH with K38R
VL: B1 VL with Q24R, A25P
binding result: binds

B4: hCD137 MAB-3 (1F.3) (antibody, V domains shown)
VH: B1 VH with I48A
VL: B1 VL with Q24R, A25P
binding result: binds

B5: hCD137 MAB-3 (1E.4) (antibody, V domains shown)
VH: B1 VH with K38R
VL: B1 VL
binding result: binds

B6: hCD137 MAB-3 (1B.10) (antibody, V domains shown)
VH: B1 VH
VL: B1 VL with Q24R, A25P, S52T
binding result: binds

B7: hCD137 MAB-3 (1G.4) (antibody, V domains shown)
VH: B1 VH with K38R, I48A
VL: B1 VL
binding result: binds

B8: hCD137 MAB-3 (1G.7) (antibody, V domains shown)
VH: B1 VH with K38R, I48A
VL: B1 VL with V44A
binding result: binds

B9: hCD137 MAB-3 (1B.13) (antibody, V domains shown)
VH: B1 VH
VL: B1 VL with Q24R, A25P, I48A, S52G
binding result: binds

B10: hCD137 MAB-3 (1B.11) (antibody, V domains shown)
VH: B1 VH
VL: B1 VL with Q24R, A25P, S52G
binding result: binds

B11: hCD137 MAB-3 (1G.8) (antibody, V domains shown)
VH: B1 VH with K38R, I48A
VL: B1 VL with V44A, L54A
binding result: binds

B12: hCD137 MAB-3 (1E.9) (antibody, V domains shown)
VH: B1 VH with K38R
VL: B1 VL with L54A
binding result: binds

B13: hCD137 MAB-3 (1G.14) (antibody, V domains shown)
VH: B1 VH with K38R, I48A
VL: B1 VL with S52T, L54A
binding result: binds

B14: hCD137 MAB-3 (1E.14) (antibody, V domains shown)
VH: B1 VH with K38R
VL: B1 VL with S52T, L54A
binding result: binds

B15: hCD137 MAB-3 (1B.5) (antibody, V domains shown)
VH: B1 VH
VL: B1 VL with Q24R, A25P, V44A
binding result: binds
